Results on four substances are retold here after patent US20130315910A1.

Holding throughout (assay): SPR
In general terms: Surface plasmon resonance follows binding to a sensor surface in real time, without labels.

Assay [1] deals with cynoFcγRIIb (Macaca fascicularis).
The target in a further assay is mFcγRIIb (Mus musculus) (UniProt P08101).
The next assay deals with T1, mFcγRIV.
T1 sequence: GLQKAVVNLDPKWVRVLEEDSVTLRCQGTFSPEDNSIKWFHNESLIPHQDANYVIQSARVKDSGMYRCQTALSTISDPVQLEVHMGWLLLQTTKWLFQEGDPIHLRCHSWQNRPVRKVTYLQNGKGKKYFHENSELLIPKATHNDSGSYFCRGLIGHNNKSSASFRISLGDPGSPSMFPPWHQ

The target of assay [2] is human FcγRI receptor protein (R&D Systems) (human) (UniProt P12314).
Sequence of human FcγRI receptor protein (R&D Systems) (human) (P12314 16-288 limits assumed): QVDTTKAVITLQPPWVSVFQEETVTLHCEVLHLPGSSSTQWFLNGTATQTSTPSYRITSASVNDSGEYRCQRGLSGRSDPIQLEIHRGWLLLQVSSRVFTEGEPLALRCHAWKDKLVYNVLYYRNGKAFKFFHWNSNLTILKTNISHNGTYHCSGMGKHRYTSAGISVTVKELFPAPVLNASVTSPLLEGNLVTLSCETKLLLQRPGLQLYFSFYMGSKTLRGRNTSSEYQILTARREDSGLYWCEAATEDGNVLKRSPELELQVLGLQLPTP
Assay [3] addresses human FcγRIIa (131R), His- and GST-tagged (human) (UniProt P12318).
In assay [4] the target is human FcγRIIa (131H), His- and GST-tagged (human) (UniProt P12318).
Sequence of human FcγRIIa (131H), His- and GST-tagged (human) (P12318 34-217): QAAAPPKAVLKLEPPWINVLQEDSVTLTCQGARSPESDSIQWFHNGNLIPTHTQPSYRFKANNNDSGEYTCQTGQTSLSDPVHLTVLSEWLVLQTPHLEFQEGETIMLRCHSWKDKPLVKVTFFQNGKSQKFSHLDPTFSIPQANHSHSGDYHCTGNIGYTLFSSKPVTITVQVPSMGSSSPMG
For assay [5], the target named is human FcγRIIb receptor protein (R&D Systems) (human) (UniProt P31994).
Sequence of human FcγRIIb receptor protein (R&D Systems) (human) (P31994 46-217 limits assumed): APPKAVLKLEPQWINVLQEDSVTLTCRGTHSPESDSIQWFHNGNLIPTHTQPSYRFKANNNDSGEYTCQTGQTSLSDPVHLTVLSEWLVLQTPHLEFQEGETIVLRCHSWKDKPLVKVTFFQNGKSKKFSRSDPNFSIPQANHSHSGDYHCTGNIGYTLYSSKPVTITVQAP

Sequence of human FcγRIIa (131R), His- and GST-tagged (human) (P12318 34-217 H167R): as the sequence (P12318 34-217) above, with H134R counted along it
Sequence of mFcγRIIb (Mus musculus) (P08101 30-210): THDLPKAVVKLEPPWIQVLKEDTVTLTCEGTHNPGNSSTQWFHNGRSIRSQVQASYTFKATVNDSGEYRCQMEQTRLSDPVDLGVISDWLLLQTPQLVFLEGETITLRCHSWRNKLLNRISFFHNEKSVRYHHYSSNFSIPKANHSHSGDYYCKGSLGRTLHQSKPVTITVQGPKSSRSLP

On to S267D/A327D (antibody), for which the Fold vs WT IgG1 (off-rate) (in assay [1]; with mFcγRIIb (Mus musculus)) was 0 fold in each case.
In the assay with mFcγRIV, S267E/L328Y (antibody) displayed a Fold vs WT IgG1 (Kd) of 0.026 fold.
In the assay with mFcγRIV, V266M (antibody) showed a Fold vs WT IgG1 (off-rate) of 1.23 fold.
For the substance “anti-CD19 antibody IgG1/2 ELLGG S267E/L328F”, the Fold vs WT IgG1 in assay [2] is 2.35 fold; in assay [3] it was 269 fold; in assay [4], 0.993 fold; in assay [5] it was 221 fold. In addition, the Kd (commonly the concentration at which binding is half-saturated) is 0.14 nM in assay [2], 3.19 nM in assay [3], 651 nM in assay [4] and 6.63 nM in assay [5].
